Test system: subjects with previously treated locally advanced or metastatic urothelial cancer
Assay: EV-301: safety, adverse events (safety analysis set, NCI-CTCAE v4.03, MedDRA)
[1] = Any Grade, N = 296 EV, 291 chemotherapy
[2] = Baseline PN, n = 55 EV, 58 chemotherapy
[3] = Grade 1, N = 296 EV, 291 chemotherapy
[4] = Grade 2, N = 296 EV, 291 chemotherapy
[5] = Grade 3, N = 296 EV, 291 chemotherapy
[6] = Grade 4, N = 296 EV, 291 chemotherapy
[7] = Grade Any, N = 296 EV, 291 chemotherapy

Description: The Safety Analysis Set (SAF) will be used for the safety analysis. All subjects who are randomized and received study drug will be included in the SAF. The frequency of AEs and the serious AEs will be summarized by MedDRA system organ class and preferred term. In addition, summary statistics will be provided for the following safety parameters: • Laboratory values • Vital sign measurements • ECOG PS
An AE is any untoward medical occurrence in a subject, temporally associated with the use of a medicinal product, whether or not considered related to the medicinal product. An AE can therefore be any unfavorable and unintended sign (including an abnormal laboratory finding), symptom, or disease (new or exacerbated) temporally associated with the use of a medicinal product.
AEs, including abnormal clinical laboratory values, will be graded using the NCI-CTCAE guidelines (Version 4.03).
The safety analysis set (SAF), which consists of all subjects who received any amount of study drug, will be used for safety analyses.
SAF was used to perform all safety analysis. All treated subjects were analyzed according to the treatment they received.
The number and percentage of AEs by severity were also summarized. All AEs were listed.
A study drug-related TEAE is defined as any TEAE with a causal relationship of YES by the investigator. AEs of interest as classified by customized MedDRA queries and/or standard MedDRA queries were also summarized.

enfortumab vedotin
Treatment-related adverse events of grade 3 or higher (% of patients): 51.4%
Treatment-related adverse events resulting in dose reduction (% of patients): 32.4%
Treatment-related adverse events resulting in interruption of treatment (% of patients): 51.0%
Treatment-related adverse events resulting in withdrawal of treatment (% of patients): 13.5%
grade 3 or higher treatment-related decreased neutrophil count (% of patients): 6.1%
grade 3 or higher treatment-related fatigue (% of patients): 6.4%
grade 3 or higher treatment-related maculopapular rash (% of patients): 7.4%
Grade ≥3 TRAE: Decreased neutrophil count, % (All, N = 296 EV, 291 SC): 6.1%
Grade ≥3 TRAE: Decreased white blood cell count, % (All, N = 296 EV, 291 SC): 1.4%
Grade ≥3 TRAE: Fatigue, % (All, N = 296 EV, 291 SC): 6.4%
Grade ≥3 TRAE: Febrile neutropenia, % (All, N = 296 EV, 291 SC): 0.7%
Grade ≥3 TRAE: Maculopapular rash, % (All, N = 296 EV, 291 SC): 7.4%
Grade ≥3 TRAE: Neutropenia, % (All, N = 296 EV, 291 SC): 4.7%
TRAE: Alopecia, Number of patients [1]: 134
TRAE: Alopecia, percent [1]: (45.3) percent
TRAE: Anemia, Number of patients [1]: 34
TRAE: Anemia, percent [1]: (11.5) percent
TRAE: Any adverse event, Number of patients [1]: 278
TRAE: Any adverse event, percent [1]: (93.9) percent
TRAE: Decreased appetite, Number of patients [1]: 91
TRAE: Decreased appetite, percent [1]: (30.7) percent
TRAE: Decreased neutrophil count, Number of patients [1]: 30
TRAE: Decreased neutrophil count, percent [1]: (10.1) percent
TRAE: Decreased white-cell count, Number of patients [1]: 16
TRAE: Decreased white-cell count, percent [1]: (5.4) percent
TRAE: Diarrhea, Number of patients [1]: 72
TRAE: Diarrhea, percent [1]: (24.3) percent
TRAE: Dysgeusia, Number of patients [1]: 72
TRAE: Dysgeusia, percent [1]: (24.3) percent
TRAE: Fatigue, Number of patients [1]: 92
TRAE: Fatigue, percent [1]: (31.1) percent
TRAE: Febrile neutropenia, Number of patients [1]: 2
TRAE: Febrile neutropenia, percent [1]: (0.7) percent
TRAE: Maculopapular rash, Number of patients [1]: 48
TRAE: Maculopapular rash, percent [1]: (16.2) percent
TRAE: Nausea, Number of patients [1]: 67
TRAE: Nausea, percent [1]: (22.6) percent
TRAE: Neutropenia, Number of patients [1]: 20
TRAE: Neutropenia, percent [1]: (6.8) percent
TRAE: Peripheral sensory neuropathy, Number of patients [1]: 100
TRAE: Peripheral sensory neuropathy, percent [1]: (33.8) percent
TRAE: Pruritus, percent [1]: (32.1) percent
Treatment-emergent Hyperglycemia, % (Baseline BMI <30 kg/m^2, n = 255 EV, 244 chemotherapy): 9.0%
Treatment-emergent Hyperglycemia, % (Baseline BMI ≥30 kg/m^2, n = 41 EV, 46 chemotherapy): 29.3%
Treatment-emergent Hyperglycemia, % [2]: 38.2%
Treatment-emergent Peripheral motor neuropathy, % [2]: 20.0%
Treatment-emergent Peripheral neuropathy, % [2]: 49.1%
Treatment-emergent Peripheral sensory neuropathy, % [2]: 40.0%
TRAE of special interest: Blurred vision, % [3]: 3.4%
TRAE of special interest: Corneal disorders, % [3]: 0.7%
TRAE of special interest: Dry eye, % [3]: 11.5%
TRAE of special interest: Extravasation site reactions, % [3]: 0.3%
TRAE of special interest: Hyperglycemia, % [3]: 1.0%
TRAE of special interest: Infusion-related reactions, % [3]: 3.7%
TRAE of special interest: Infusion-related reactions, Local events, % [3]: 0.3%
TRAE of special interest: Infusion-related reactions, Systemic events, % [3]: 3.4%
TRAE of special interest: Ocular disorders, % [3]: 13.5%
TRAE of special interest: Peripheral neuropathy, % [3]: 14.9%
TRAE of special interest: Peripheral neuropathy, Motor events, % [3]: 1.7%
TRAE of special interest: Peripheral neuropathy, Sensory events, % [3]: 14.5%
TRAE of special interest: Rash, % [3]: 13.9%
TRAE of special interest: Severe cutaneous adverse reaction, % [3]: 6.8%
TRAE of special interest: Skin reactions, % [3]: 13.9%
TRAE of special interest: Blurred vision, % [4]: 0.7%
TRAE of special interest: Dry eye, % [4]: 3.7%
TRAE of special interest: Extravasation site reactions, % [4]: 0.7%
TRAE of special interest: Hyperglycemia, % [4]: 1.4%
TRAE of special interest: Infusion site reactions, % [4]: 0.7%
TRAE of special interest: Infusion-related reactions, % [4]: 3.7%
TRAE of special interest: Infusion-related reactions, Local events, % [4]: 0.7%
TRAE of special interest: Infusion-related reactions, Systemic events, % [4]: 3.0%
TRAE of special interest: Ocular disorders, % [4]: 4.4%
TRAE of special interest: Peripheral neuropathy, % [4]: 26.4%
TRAE of special interest: Peripheral neuropathy, Motor events, % [4]: 4.1%
TRAE of special interest: Peripheral neuropathy, Sensory events, % [4]: 25.7%
TRAE of special interest: Rash, % [4]: 15.5%
TRAE of special interest: Severe cutaneous adverse reaction, % [4]: 8.4%
TRAE of special interest: Skin reactions, % [4]: 18.6%
TRAE of special interest: Dry eye, % [5]: 0.7%
TRAE of special interest: Hyperglycemia, % [5]: 3.7%
TRAE of special interest: Infusion-related reactions, % [5]: 1.4%
TRAE of special interest: Infusion-related reactions, Systemic events, % [5]: 1.4%
TRAE of special interest: Ocular disorders, % [5]: 0.7%
TRAE of special interest: Peripheral neuropathy, % [5]: 5.1%
TRAE of special interest: Peripheral neuropathy, Motor events, % [5]: 1.7%
TRAE of special interest: Peripheral neuropathy, Sensory events, % [5]: 3.7%
TRAE of special interest: Rash, % [5]: 14.2%
TRAE of special interest: Severe cutaneous adverse reaction, % [5]: 4.7%
TRAE of special interest: Skin reactions, % [5]: 14.2%
TRAE of special interest: Rash, % [6]: 0.3%
TRAE of special interest: Severe cutaneous adverse reaction, % [6]: 0.3%
TRAE of special interest: Skin reactions, % [6]: 0.3%
TRAE of special interest: Hyperglycemia, % (Grade 5, N = 296 EV, 291 chemotherapy): 0.3%
TRAE of special interest: Blurred vision, % [7]: 4.1%
TRAE of special interest: Corneal disorders, % [7]: 0.7%
TRAE of special interest: Dry eye, % [7]: 15.9%
TRAE of special interest: Extravasation site reactions, % [7]: 1.0%
TRAE of special interest: Hyperglycemia, % [7]: 6.4%
TRAE of special interest: Infusion site reactions, % [7]: 0.7%

— US20230330251A1, “METHODS FOR TREATING CANCERS WITH ANTIBODY DRUG CONJUGATES (ADC) THAT BIND TO 191P4D12 PROTEINS” (AGENSYS, INC., priority 2020, published 2023)
